Laboratory results taken from a protein production outcome set (Wang et al. 2014).

Assay: label from the status in PepcDB records

Row | Sequence | protein production
1 | MHVSKVFPSLRDTLPRDLMASVVVFLVALPLCMGIAIASGMPPAKGLLTGIVGGLVVGFLAGSPLQVSGPAAGLAVLVFELVRTYGVAMLGPILLLAGAIQLLAGRLRLGCWFRVTSPAVVYGMLAGIGILIVLSQLHVMLDLAPKASGLDNLLAFPQAAFAALGSLGMDSGLDAALLGLGTIAVMWGWDKLRPQRLRFLPGALLGVSLATLASLWLALDVRRVEVPANLGEAIVWLRPADLLALADPSLLLAAVVVAFIASAETLLSAAAVDRLHDGPRSDMDRELSAQGVGNMLCGLLGALPMTGVIVRSSANVNAGARTRASAIFHGLWLLAFVLLLGSLLRQIPVASLAGVLVYTGVKLVDFKALGNLSRYGRMPMLVYAATALAIVFTDLLTGVLVGFALTLLKLVLKAARLKIALRYTGEHEAELRLSGAATFLKVPALSRVLDEVKPGTTLHVPMDNLSYVDHACMELLEDWGRMAPVQGSRLVIEPRALKRRLEGRLRGSVGLGGARNGGAVSPG | failed
2 | MIAAAWIAVTAALYAAARALHRRFPRPWLTPLLVVPGALAAVLLAARVPYPGYMRGGRLLVDLLGPATVAFALPLHRHAGLLRRHAAELCAGILAGCAVAVGSSFLLARALGLGRPLALSLAPRSITTPFAMQVAGDLGGVPALAAVFVILTAVVGLVVGQLLLRWLPLRSAVARGALFGMGAHAAGTAQAMELGRVEGAVAGVVMIVAGLGVLVATPLLRLAL | failed
3 | MIAFQALQAISPIDGRYRNKVEVLSRYFSEGSLIRYRVKVEVEYFIALCNELPSLKDVCPPSLEEELRRIYQDFSEKDAVRVKEIEAVTNHDVKAVEYFLKERFEAMGIRDAKEFIHFGLTSQDVNNTAFPMMIREAMTEVYLPALQELVEQLHAYALQWKDVPMLAKTHGQPASPTRLGKEIEVFVYRLRKQIDLLLEVPHSAKFGGATGNFNAHHVAYPDHDWSDFGRRFVTSLGLEREELTTQISNYDNMAALFDACCRINVILIDLCRDFWQYISMEYFKQKIKAGEVGSSAMPHKVNPIDYENAEGNLGIANAIFEHLSRKLPISRLQRDLTDSTVLRNVGTPLAHSLIAVTSIAKGLGKLLLNEAALDRDLQNNYAVVAEAIQTILRREGYPNPYETLKALTRTNETVTAESIASFIEALDIDETVKEEMRRISPSNYVGI | failed
4 | MIAISSLLGLVVRSFYFLLPDYRAADTWFHASKVKMIISTGTVYFSHVPGYFSAQIIKYPPGYHALIALLSGFKGENIIYGMNSLRIFEILYLPALAYLVGREIRREIGIFAALLTNFSALYYYFVQYALLPAFTNYMIFLLSVYFLEVAMRDRGIKISIMLGITSGIMAVVHPYQYILFQATAFFTTILSKNRKVFLTQLILSASVFLVFTPFSTEYAVKGILMNPRFSNKDNPNFLISILRYSFVDNGQILFGLSLILALILSLMRGGSIEKGLSLSFLLIIFMMLDKTYLNIRIPYLSAVWNSERAFMLTTPLIPILEGIGLNYIFKVKKELAAIFLVVGMMISYPYLRIEHLASESSYLLDPEVVDFIKEVSRIAGNETVMTACEFDSGRWIPILTETPIVCYSKNISEARYLYVDTRGAGEIEVYPINIVNFLDRRVVLFRDGLWLLDLNKHGKPTGDVLSYYHTNGTISYIKDTKWFVYGWVNKNYATMKLRLKGFPYAIMIVNTSSILFSTSESFDRIEIRISGKKGRALEIYLDGEFIKRYEFKTEYGDERIVLKVRVDPGMHYLILYSPNTTYKIPIGVKEIMLKREGP | failed
5 | MIAMILVHPHIFWLSLGGLLLAAEMLGGNGYLLWSGVAAVITGLTVWLLPLGWEWQGVLFAALTLLAAWLWWRWLARRVREQKPTDSRLNQRGQQLVGRRFMLDAALVNGRGHMRVGDSSWPVCADEDLRAGTHVEVIAVEGITLRIRAV | failed
6 | MIATLRSYLSADKRGLVGPAFLFLSLLASISDPFGGYGMTFLRRFLFWVLVLGVAGGIAFLSHRMVERHLSGAPLLGKDLLIVLLVTLSFTPSLWVLIFLFAAPSTGTAPDMWSMARYGTIFASGLIVLRRGVFGQSVPEEESLQPRIYKRLPEGFSEQILRLTVRDHSVDVVTDKGVHTIRSRFGDAIDEMVPISGHCTHRSHWVTDTAIESVERSGGKIHLRLSNGDLIPVSRKYRPALEEAGIV | failed
7 | MICTPKVGLNNQLTKVQFFMTKYNFLFKQQVIEFYLQNDKNSSLTRRHFQLAETTLERWINQFNHSGINGLALLGKKRNYSPEFKLNVIQAVKNGKFSAEAACLHFGIANSGVVSQWLQAFEKQGINGLIPKPKGRPTMKLQYPKMPPKPKTREEELELENLRLRAENAILKKLQELNQQKMQKKPLSLEHHHHHH | failed
8 | MIDFLDVQKETPRIRIAIDRVGVKNIKFPLKIHDDFAFLTLNLFVDVPADRKGADMSRAVESIQKVINAGSYGERIGDIGIAICDEALSRFNYSEKAQCEVNIQYYRRSGERYLEYRMYVETAKDRKQIMKNEIGISYVTMTACPCAMETTRALISMDNPDISDAISAIPTITHNQRNVTKLTVDNRSKMITVWDLADVMERVQGKPLDSLLKRVEEGRLVYSAHRNPKFVEDVVREIAYEAARVLGVPDEATIKVSSESDESIHPHNAYAEIDTTAGELRKLHLH | not failed
9 | MIDFNDIPQPEAQDRQARREEIRAALLARLESVLFALLPAGKKRGGKFLIGDVLGSPGDSLEVVLDGEKAGLWTDRATGDGGDIFGLIAAHLGADVHADFPRVLDVAADLVGRAHPAPPRKARSAPPVDGLGPATAKWDYFDPAGKLIAVVYRYDPPGRKKEFRPWDARRRKMAPPEPRPLYNQPGLVAADTVVLVEGEKCAQALIDIGVAATTAMHGANAPVDKTDWSPLAGKAVLIWPDRDKPGWEYAMAAAQAALAVGAMSCDVLLPPDDRSEGWDAADAVAEGFDVAGFLAFGPRMSIKPASVTPTQEPSVWATDDALALAFTSRYAEDWRYCAAWGKWLVWDGRRWQADETLLVHHLIRAICREAALKADSHRLAAKLAASSTVGGVERLARTDRRHASTSEEWDADLFALNTPSGIVDLKTGRIKPHDRRERMTKLATATPHGDCARWRAFLEDITGGDTALQAYLQRMVGYCLTGATSAHALFFLYGTGANGKSVFVNTLATILGDYATSAPMDTFMEARGDRHPTDLAGLRGARFVSSIETEQGRRWNESKVKAITGGDKVSARFMRQDFFEYLPQFKLVIAGNHKPAIRNVDEAMKRRLHLIPFTVTIPPEKRDGQLTEKLLAERDGILAWAVEGCLAWQRDGLNPPASVVSATEEYFDEEDAIGDFLDEEAQRFEQARVAVADVFQRWQEWATRRGEYVGTSRWLAQQLANRGFGRARLHGGVKGLAGLSLKPRDYGTRLPYRDD | failed
10 | MIDGNSIIVSSPEVAFPIAVRYAWADNPICNLYNGVNLPASPFRTDDWQGILMVINRYSCFDLPSEIDVTHKKITMNKLIYLVIFSFLSTSIYAQMKDLVQYVNTLQGTDSHFGLSYGNTYPTTGMPYAMHTWSAQTGKNGEGWKYQYAVDNIRGFCQSHQCSPWMSDYAVYSFMPMVGKLVVNQEMRATKFSHDNEIAKPHYYKVMLDNGITTEMAPTTRGVHLRFSYPSTEDAYLVIDGYTDMSEIKIDPAKRQISGWVNNQRFVNNSKTFRSYFVVQFDKAFEDYGMWENQKDEIYPKKLEGEGKGYGAYIKFKKGSKVQAKAASSYISAEQAVITLNDELGKDKNLEATKIRGHKTWNELLNRIQVEGGTDEQMKTFYSCLFRANLFSRKFYERKANGEPYYYSPYDGKVYDGYMYTDNGFWDTFRSQFPLTNILHPTMQGRYMNALLAAQEQCGWLPSWSAPGETGGMLGNHSISLLADAWAKGIRTFDPEKALKAYAHEAMNKGPWGGANGRGFWKEYFELGYVPYPESMGSSAQTMEYAYDDFCGYQLAKMTGNKHYQEVFARQMYNYKNVFDPSIGFMRGKGVDGKWQEPFDPLEWGGPFCEGNAWHYTWSVFHDVEGLIDLFGSDQRFTTKMDSVFTLPSTIKPGTYGGVIHEMKEMELSGMGQYAHGNQPIQHMPYLYSYAGQPWKTQYWVRQIVERLYNSTERGYPGDEDQGGMSSWYILSSLGIYAVCPGTDEYVIGSPLFKKATITMENGNKFVIEANNNSKENLYIQSATLNGRVLDKNFIRYDDIADGGIIRFEMGSQPNKERCTSKYAAPFSLSKE | failed
11 | MIDHRPTSWSRLCTALTSGASCTIGGQAVMEGVMMRNGDRLAIAMRRPDGEIVAESRPWFSLTRSAWLKRPFVRGFPILVETLVNGIKALNRSAEQAVEGETGEELKPWQLAATLAVSVAMALGLFVVVPHLFSIGMKLLGLGGDVEGLSFHMWDGFFKFAVFIGYIVAISFVPDIRRVFQYHGAEHKVIRAFEAAGDVTPDTAMHHSRLHPRCGTTFLLFVLSISIILHAVLVPLLMLVWTPSGAFAKHGVTVLFKLLLMIPISALAYETIRYAARLGEGLTGTLLRAPGMLLQKLTTGEPDREQLEVAIVALREALGDDAPQSVRAPAYRHLE | failed
12 | MIDKREVLAPNRRSRQREEIVAEEKRYEVYFQPLLSGVEVKKSNEIKIVLPQQEYNRIEQGAKGTLRLQGTRYISFVPNSVAKLEHHHHHH | not failed
13 | MIDLAVLPIYLTAVIALLLLPGPDMLLIASSSMSYGRKVGLFASLGNATSGLILTLLAAMGVSTLIAMSPVALKVLHLLGGAYLLKMGWDCLRAEASSAPELDQKNKMASTYYQRALMSNLLNPKALVFFVMFLPQFVSSNITASSGEQMLALGLLLNVLGLLFNLLLVALAGTLGKGLLENEKFRTYQHKLMGLVFVILALWMLSSFVL | failed
14 | MIDMEQDNRNQINGENISNASAGGTQPEQNTQSSQNMHPEQTGQGTQQDSLYHYSYMNNKGDARFDRPAGETSQQRMGAQTQNMRETANVQGGTQNTAYSGFQRNVNGMEAWYDSQRMNAGYQNPENNVGGYGQGSQSVPHKTETSHKHEKQPKPKKNSGKKSGVGKKVAGVVAAAVVFGLVAGVVFQGVRYGSDKMLNKNSATTEASADATTENNAPQLKQASSDATNTVYDVATVAQKVMPSIVSITGTYVTTYDYWFNSYQQESTGAGSGIIIGKDDQYLYLATNYHVVQNAKSLSVTFVNDKSADATVKGYVENNDIAVVTVKLADISDDTLNEIKEIQVGSSDDLSVGDPCVAIGNALGYGQSVTVGYISALNREISASDETVKVLQTDAAINPGNSGGALVNMQGELIGINTAKYSDTSVEGMGYALPISDIQDIINDLIAGKKVASDGTASGQAYLGISAQTITSQYSQLLNMPEGVYISSVEQGSAAEECGLQSGDIICSLDGEDIADMDTFHDRIVACKPGDKVTIVYYRNNNGNYEKQTTTATLQEKQ | failed
15 | MIDPRPVGYILGLLVATLGALMLVPMALDLAAGDRHWLSFAETATITTVAGSMLALACANGRGQGTGLSLQQSFLLTTGAWVLLPVFGALPFMMGRPDASFTDAVFEAMSGFTTTGTTVFVGLDALPLGTNLWRGMLQWLGGLGIVIVAMIFLPVMKVGGMQFFRSEGFDTLGKILPRALDISTALIQIYLVLTMACVMTFLALGIPLFEAVVHALTTVSTGGFSSSDRSFGLFQGPAEYACAFFMVLASLPFVRFVQLAQGTFLPLWRDPQVRAYLRWNGYAIGLIVAYEVVTRNAPVLPTLRETTFNVISTFSGTGFSSVDLGLWGTFPFVLLIVVGLIGGCTSSTGCSVKVFRYLILLEAIKVQIRRLQSPSAVIFVDYEGRRVGEDVINSVILFFTMFILSFGVLAVLLSLTGLQTKTAITAAWTAIANVGPAFGPEVSATGAVDRFPAVAKWLMIGGMLVGRLELLSVFVLLTPRFWRS | failed
16 | MIDRPLEGKVAFITGAARGLGRAHAVRLAADGANIIAVDICEQIASVPYPLSTADDLAATVELVEDAGGGIVARQGDVRDRASLSVALQAGLDEFGRLDIVVANAGIAMMQAGDDGWRDVIDVNLTGVFHTVQVAIPTLIEQGTGGSIVLISSAAGLVGIGSSDPGSLGYAAAKHGVVGLMRAYANHLAPQNIRVNSVHPCGVDTPMINNEFFQQWLTTADMDAPHNLGNALPVELVQPTDIANAVAWLASEEARYVTGVTLPVDAGFVNKR | not failed
